Assay results: patent US20240307439A1 (ARCELLX, published 2024)
Blank lines part the entries; values can stand above or below the binder they belong to.

Assays:
BCMA-binding CAR (bc40) = molecular target: T1, BCMA-binding CAR (bc40); experiment: flow cytometry, CAR-transduced Jurkat cells incubated with 0.5 µg Adapter, stained with anti-HIS PE
T1 construct: D domain CAR on Jurkat reporter cells or T cells; The entry includes signal peptide and FLAG tag; also called BCMA-specific D domain CAR; CTsp-Flag-GSlinker-bc40-GSlinker-CD8H-TM-41BB-CD3ζ

CD123-Fc = molecular target: T2, CD123-Fc (Homo sapiens (Human), UniProt P26951 19-305); experiment: flow cytometry, Adapter held on af03-CAR Jurkat cells, CD123-Fc detected with Anti-Fc A488
T2 construct: not shown: Fc part not described
T2 sequence: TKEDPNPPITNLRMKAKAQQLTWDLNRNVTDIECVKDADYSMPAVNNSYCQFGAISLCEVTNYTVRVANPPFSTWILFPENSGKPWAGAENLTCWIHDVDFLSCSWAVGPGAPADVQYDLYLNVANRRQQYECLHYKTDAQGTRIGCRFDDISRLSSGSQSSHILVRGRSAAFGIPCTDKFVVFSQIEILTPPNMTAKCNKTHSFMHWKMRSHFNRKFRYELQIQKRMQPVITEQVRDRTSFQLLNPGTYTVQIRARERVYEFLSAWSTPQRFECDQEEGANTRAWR
Procedure: (§1) 10⁵ Jurkat NFAT-Luciferase transduced with an AFP (p26)-binding CAR (af03) were incubated with a total of 0.5 μg of Adapter proteins at various ratios of the BCMA- to CD123-specific Adapters (4° C. for 20 minutes), washed, and then incubated with CD123-Fc and biotinylated BCMA (0.5 μg of each) (4° C. for 20 minutes), washed, then binding detected with Anti-Fc A488 and Streptavidin-PE. FIG. 8A presents a flow cytometric analysis of CD123-binding and BCMA-binding to their respective target proteins, FIG. 8B provides a comparison of mean fluorescence intensity (MFI) of A488 MFI (CD123-binding, left axis) and PE MFI (BCMA-binding, right axis) flow cytometric data presented in FIG. 8A.
(§2) 10⁵ Jurkat NFAT-Luciferase transduced with a p26-binding CAR (af03, SEQ ID NO: 1092) were incubated with a total of […] of Adapters (SEQ ID NO: 1084, SEQ ID NO: 1085) at the indicated ratios at 4° C. for 20 minutes, washed, and then incubated with CD123-Fc and biotinylated BCMA (0.5 μg of each/(4° C. for 20 minutes), washed, then binding detected with Anti-Fc A488 and Streptavidin-PE. FIG. 8A presents a flow cytometric analysis of CD123-binding and BCMA-binding to their respective target proteins, FIG. 8B provides a comparison of mean fluorescence intensity (MFI) of A488 MFI (CD123-binding, left axis) and PE MFI (BCMA-binding, right axis) flow cytometric data presented in FIG. 8A.

biotinylated BCMA = molecular target: T3, biotinylated BCMA (Homo sapiens (Human), UniProt Q02223 1-54, biotinylated); experiment: flow cytometry, Adapter held on af03-CAR Jurkat cells, biotinylated BCMA detected with Streptavidin-PE
T3 sequence: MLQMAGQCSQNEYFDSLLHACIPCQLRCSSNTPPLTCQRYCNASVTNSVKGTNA
Procedure: as §1, §2

[1] = molecular target: T4, BCMA on tumor cells (NCI-H929, U266, MM.1S, NALM6-BCMA) (Homo sapiens (Human), UniProt Q02223 1-184); experiment: flow cytometry of NALM6-BCMA tumor cells flushed from femurs of mice after I.V. Adapter administration
T4 construct: also called BCMA+ tumor target
T4 sequence: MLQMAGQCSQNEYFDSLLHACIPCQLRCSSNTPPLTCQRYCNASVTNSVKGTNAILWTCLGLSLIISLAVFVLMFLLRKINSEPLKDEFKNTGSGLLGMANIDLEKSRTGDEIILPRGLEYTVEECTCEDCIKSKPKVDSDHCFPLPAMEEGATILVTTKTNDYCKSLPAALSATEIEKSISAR

T1 sequence (chain, as listed by the source): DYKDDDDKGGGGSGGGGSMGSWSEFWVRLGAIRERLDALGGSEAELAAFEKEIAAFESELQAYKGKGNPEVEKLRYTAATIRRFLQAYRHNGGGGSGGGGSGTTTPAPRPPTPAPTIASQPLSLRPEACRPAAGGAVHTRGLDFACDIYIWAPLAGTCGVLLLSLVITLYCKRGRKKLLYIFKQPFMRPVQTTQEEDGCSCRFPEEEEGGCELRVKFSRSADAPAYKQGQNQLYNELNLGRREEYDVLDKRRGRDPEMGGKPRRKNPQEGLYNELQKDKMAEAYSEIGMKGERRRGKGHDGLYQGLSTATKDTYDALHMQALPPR

B1: Cg06-BCMA Adapter (designed binder)
chain: DEMGSWDEFGRRLYAIEWRLYALGGSEAELAAFEKEIAAFESELQAYKGKGNPEVEKLREIAAVIRSNLQAYRHNGGGGSGGGGSGGGGSGMLQMAGQCSQNEYFDSLLHACIPCQLRCSSNTPPLTCQRYCNASVTNSVKGTNAGGGGSGGGGSGGGGSHHHHHHHHHH
notes: Soluble fusion: cg06 D domain, linker, BCMA extracellular domain, linker, HIS tag; also called CD123(cg06)-BCMS-HIS tag
binding result (BCMA-binding CAR (bc40)): binds

B2: cg06-p26 Adapter (designed binder)
chain: DEHHHHHHHHHHKLENLYFQGGGGGSMGSWDEFGRRLYAIEWRLYALGGSEAELAAFEKEIAAFESELQAYKGKGNPEVEKLREIAAVIRSNLQAYRHNGGGGSGGGGSGGGGSLEKCFQTENPLECQDKGEEELQKYIQESQALAKRSCGLFQKLGEYYLQNAFLVAYTKKAPQLTSSELMAITRKMAATAATCCQLSEDKLLACGEGAADIIIGHLCIRHEMTPVNPGVGQCCTSSYANRRPCFSSLVVDETYVPPAFSDDKFIFHKDLCQAQGVALQTMKQEFLINLVKQKPQITEEQLEAVIADFSGLLEKCCQGQEQEVCFAEEGQKLISKTRAALGV
notes: Soluble fusion: HIS tag, cg06 D domain, linker, p26; also called cg06-AFP (p26) Adapter; CD123 (cg06)-AFP (p26) Adapter
binding result (CD123-Fc): binds

B3: bc40-p26 Adapter (designed binder)
chain: DEHHHHHHHHHHKLENLYFQGGGGGSMGSWSEFWVRLGAIRERLDALGGSEAELAAFEKEIAAFESELQAYKGKGNPEVEKLRYTAATIRRFLQAYRHNGGGGSGGGGSGGGGSLEKCFQTENPLECQDKGEEELQKYIQESQALAKRSCGLFQKLGEYYLQNAFLVAYTKKAPQLTSSELMAITRKMAATAATCCQLSEDKLLACGEGAADIIIGHLCIRHEMTPVNPGVGQCCTSSYANRRPCFSSLVVDETYVPPAFSDDKFIFHKDLCQAQGVALQTMKQEFLINLVKQKPQITEEQLEAVIADFSGLLEKCCQGQEQEVCFAEEGQKLISKTRAALGV
notes: Soluble fusion: HIS tag, bc40 D domain, linker, full-length p26; also called bc40-AFP (p26) Adapter; HIS tag-BCMA(bc40)-p26
binding result (biotinylated BCMA): binds

The next lines start with the values.

binding result (BCMA-binding CAR (bc40)): binds
B4: α3D-BCMA Adapter (designed binder)
chain: DEGGGGSMGSWAEFKQRLAAIKTRLQALGGSEAELAAFEKEIAAFESELQAYKGKGNPEVEALRKEAAAIRDELQAYRHNGGGGSGGGGSGGGGSGMLQMAGQCSQNEYFDSLLHACIPCQLRCSSNTPPLTCQRYCNASVTNSVKGTNAGGGGSGGGGSGGGGSHHHHHHHHHH
notes: Soluble fusion: targetless α3D domain, linker, BCMA extracellular domain, HIS tag; also called none(α3D)-BCMA-HIS tag

binding result [1]: binds
B5: BCMA specific Adapter (bc98-p26-bc98) (designed binder)
chain: MGSWSEFWARLGAIRERLDALGGSEAELAAFEKEIAAFESELQAYKGKGNPEVEKLRYTAGTIKRFLQAYRHNGGGGDGGGGSGGGGSGLEKCFQTENPLECQDKGEEELQKYIQESQALAKRSCGLFQKLGEYYLQNAFLVAYTKKAPQLTSSELMAITRKMAATAATCCQLSEDKLLACGEGAADIIIGHLCIRHEMTPVNPGVGQCCTSSYANRRPCFSSLVVDETYVPPAFSDDKFIFHKDLCQAQGVALQTMKQEFLINLVKQKPQITEEQLEAVIADFSGLLEKCCQGQEQEVCFAEEGQKLISKTRAALGVGGGGSGGGGSGGGGSMGSWSEFWARLGAIRERLDALGGSEAELAAFEKEIAAFESELQAYKGKGNPEVEKLRYTAGTIKRFLQAYRHN
notes: also called SPRX-BCMA; sparX-BCMA
